Laboratory results: US20090117111A1 (XOMA TECHNOLOGY, published 2009)

How the values were obtained:
human FcγRIIIa-158F [1] = molecular target: T1, human FcγRIIIa-158F (human, UniProt P08637 17-208, limits assumed); assay: Biacore (SPR); ratio of KD against rituximab
T1 construct: also called FcγRIIIa aa158F allele

human FcγRIIIa-158F [2] = molecular target: T1, human FcγRIIIa-158F; assay: Biacore (SPR)
human FcγRIIIa-158V = molecular target: T2, human FcγRIIIa-158V (human, UniProt P08637 17-208); assay: Biacore (SPR)
T2 construct: also called FcγRIIIa aa158V allele
T2 sequence (P08637 17-208 F176V): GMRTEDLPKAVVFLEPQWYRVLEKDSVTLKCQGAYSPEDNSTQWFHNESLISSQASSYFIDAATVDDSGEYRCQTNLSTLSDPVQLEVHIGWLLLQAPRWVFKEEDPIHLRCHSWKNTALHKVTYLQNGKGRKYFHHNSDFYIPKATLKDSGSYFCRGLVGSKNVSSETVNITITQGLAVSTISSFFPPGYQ

T1 sequence (P08637 17-208 limits assumed): as the sequence (P08637 17-208 F176V) above, with V160F counted along it

fold higher affinity compared with rituximab (human FcγRIIIa-158F [1]): 4.6 fold
Kd (human FcγRIIIa-158F [2]): 2800 nM
Kd (human FcγRIIIa-158V): 492 nM
B1: monoclonal antibody CHIR-12.12 (antibody, human IgG1, kappa)
heavy: not shown
light: DIVMTQSPLSLTVTPGEPASISCRSSQSLLYSNGYNYLDWYLQKPGQSPQVLISLGSNRASGVPDRFSGSGSGTDFTLKISRVEAEDVGVYYCMQARQTPFTFGPGTKVDIRRTVAAPSVFIFPPSDEQLKSGTASVVCLLNNFYPREAKVQWKVDNALQSGNSQESVTEQDSKDSTYSLSSTLTLSKADYEKHKVYACEVTHQGLSSPVTKSFNRGEC
notes: Fully human IgG1 kappa anti-CD40 antibody; also called CH12.12
